# Substitutions are numbered along the chain they refer to.
# T1: human IL-31 (human, UniProt Q6EBC2 24-164)
# T1 sequence (looked up): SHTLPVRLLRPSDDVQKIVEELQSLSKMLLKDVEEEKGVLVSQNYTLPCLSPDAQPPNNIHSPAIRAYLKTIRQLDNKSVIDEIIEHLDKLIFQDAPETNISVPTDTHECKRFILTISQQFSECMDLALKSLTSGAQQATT
# T2: cynomolgus IL-31-His (cynomolgus monkey (Macaca fascicularis), UniProt G7PJ78 24-163)
# T2 construct: extracellular domain; also called cynomolgus monkey IL-31; cyno IL-31; not shown: His tag
# T2 sequence: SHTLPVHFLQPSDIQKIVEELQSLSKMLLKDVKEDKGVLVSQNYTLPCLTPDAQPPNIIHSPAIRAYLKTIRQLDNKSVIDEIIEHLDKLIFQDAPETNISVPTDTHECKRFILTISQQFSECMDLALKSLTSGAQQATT
# B1: PRO2198 (bispecific antibody)
# chain 1: DIQMTQSPSSLSARVGDRVTITCQASEDIESYLAWYQQKPGKAPKLLIYRASTLAYGVPSRFSGSGSGRDFTLTISSLQPEDFATYYCLGSSYSTGSNIFGQGTKVEIKRTVAAPSVFIFPPSDEQLKSGTASVVCLLNNFYPREAKVQWKVDNALQSGNSQESVTEQDSKDSTYSLSSTLTLSKADYEKHKVYACEVTHQGLSSPVTKSFNRGEC
# chain 2: not shown
# B2: PRO2199 (bispecific antibody)
# chain 1: not shown
# chain 2: B1 chain 1 with R14S, R69T
# B3: PRO1900 (scFv)
# chain: AFQLTQSPSSLSASVGDRVTITCQASQSIDSWLAWYQQKPGKPPKLLIYQASKLASGVPSRFSGSGSGTDYTLTISSLQPEDFATYYCQTYYGGGHIGWGFGTGTKVTVLGGGGGSGGGGSGGGGSGGGGSQSQLVESGGGRVQPGGSLRLSCAASGFSFSANYWICWVRQAPGKGLEWIVCIYIGSRADTYYAPWAKGRFTISKDNSKNTVYLQMNSLRAEDTATYFCARFSSGIYDLDRFFLWGQGTQVTVSS
# B4: PRO1903 (scFv)
# chain: B3 chain with D30E, R142L, T226V, Q250L
# B5: PRO1901 (scFv)
# chain: B3 chain with R142S
# B6: PRO1902 (scFv)
# chain: B3 chain with R142L, Y184S, T226V, Q250L
# Biological target: T1, human IL-31
# Assay: cell-based or functional assay
row,"Mean IC50, neutralization of human IL-31-induced signaling in IL-31RA/OSMR dimerization assay",Binder
1,0.198 nM,B1
2,0.142 nM,B2

# Biological target: T1, human IL-31
# Assay: cell-based or functional assay
# Remark: another data set of the same source
row,"IC50, neutralization of hIL-31-induced signaling in IL-31RA/OSMR dimerization assay",Binder
1,8.21 ng/mL,B3
2,7.98 ng/mL,B4
3,8.07 ng/mL,B5
4,371 ng/mL,B6

# Biological target: T2, cynomolgus IL-31-His
# Assay: SPR (Biacore T200), IL-31-His captured via anti-His antibody, scFv as analyte, 1:1 model
Kd,koff,kon,Binder
1.39 nM,0.000605 s⁻¹,434000 M⁻¹ s⁻¹,B4
1.14 nM,0.000569 s⁻¹,501000 M⁻¹ s⁻¹,B5
3.38 nM,0.00247 s⁻¹,731000 M⁻¹ s⁻¹,B6

# From EP4019546A1 (Numab Therapeutics AG, dated 2022)
